B1: GST-αX I-domain (domain or fragment)
chain: RQEQDIVFLIDGSGSISSRNFATMMNFVRAVISQFQRPSTQFSLMQFSNKFQTHFTFEEFRRSSNPLSLLASVHQLQGFTYTATAIQNVVHRLFHASYGARRDAAKILIVITDGKKEGDSLDYKDVIPMADAAGIIRYAIGVGLAFQNRNSWKELNDIASKPSQEHIFKVEDFDALKDIQNQLKEKIFAIEG
B2: GST-αX I-domain K242A/K243A (domain or fragment)
chain: RQEQDIVFLIDGSGSISSRNFATMMNFVRAVISQFQRPSTQFSLMQFSNKFQTHFTFEEFRRSSNPLSLLASVHQLQGFTYTATAIQNVVHRLFHASYGARRDAAKILIVITDGAAEGDSLDYKDVIPMADAAGIIRYAIGVGLAFQNRNSWKELNDIASKPSQEHIFKVEDFDALKDIQNQLKEKIFAIEG
B3: GST-αX I-domain K243S/E244H (domain or fragment)
chain: RQEQDIVFLIDGSGSISSRNFATMMNFVRAVISQFQRPSTQFSLMQFSNKFQTHFTFEEFRRSSNPLSLLASVHQLQGFTYTATAIQNVVHRLFHASYGARRDAAKILIVITDGKSHGDSLDYKDVIPMADAAGIIRYAIGVGLAFQNRNSWKELNDIASKPSQEHIFKVEDFDALKDIQNQLKEKIFAIEG
B4: GST-αX I-domain D249M (domain or fragment)
chain: RQEQDIVFLIDGSGSISSRNFATMMNFVRAVISQFQRPSTQFSLMQFSNKFQTHFTFEEFRRSSNPLSLLASVHQLQGFTYTATAIQNVVHRLFHASYGARRMAAKILIVITDGKKEGDSLDYKDVIPMADAAGIIRYAIGVGLAFQNRNSWKELNDIASKPSQEHIFKVEDFDALKDIQNQLKEKIFAIEG

Tests used:
complement fragment iC3b [1] = target: complement fragment iC3b (UniProt P01024); assay: SPR
complement fragment iC3b [2] = target: complement fragment iC3b (UniProt P01024); assay: ELISA

Binder	Kd (complement fragment iC3b [1]) [nM]	Kd (complement fragment iC3b [2]) [nM]
B1	1060	1000
B2	2890	–
B3	560	–
B4	490	–

— article PMC7772510
